Experimental data published in the nanobody polyreactivity screen of Harvey et al. (2022).

Test: yeast display, Sf9 membrane polyspecificity reagent, FACS + sequencing; frameworks hold sequencing errors
In short: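 Nanobodies from a synthetic yeast display library (Saccharomyces cerevisiae BJ5465), induced 36–48 hours with galactose, were stained 1 hour at 4 °C with 10% biotinylated, detergent-solubilized Sf9 membrane reagent, enriched on streptavidin microbeads, then FACS-sorted. Anti-HA (expression) and streptavidin (reagent binding) fluorescence set low and high (top ~1%) gates. Polyreactivity labels come from the gate of origin. Genes were colony-PCR amplified, MiSeq 2 × 250 sequenced and filtered by CDR length.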

| Sequence | polyreactivity (PSR sort gate) |
| --- | --- |
| QVQLVESGGGLVQAGGSLRLSCAASGLTFGSNTMGWYRQAPGKERELVAAITSNGGSTYYADSVKRRFTISRDYAKNTVYLQMNSLKPEDTAVYYCAARSYDGYYRYYYWGQGTQVTVSS | low polyreactivity |
| QVQLVESGGGLVQAGGSLRLSCAASGLTFGTNSMGWYREAPGKEMELVAAISTSSGSTYYADSVKGRFTISRDNAKNTVYLLMNRLKPEDTAVFYCAAVTVTKLSYYRYYYWGQCTQVTVSS | low polyreactivity |
| QVQLVESGGGLVQAGGSLRLSCAASGLTFGTYAMGWYRQAPGKERELVAAISGTGGTTYYADSVKGRFTISRDNAKNTVYLKMNSLKPEDTAVYYCNKRWRRPYPYDYWGQGTQVTVSS | high polyreactivity |
| QVQLVESGGGLVQAGGSLRLSCAASGLTFGVNAMGWSRQAPGKERELVAAISGSGGRTNYADSVKGRFTISRDNAKNTVYLQMNSLKPEDTAVYYCNARFPDWALSEISHSTTYGYWGQGTQVTVSS | low polyreactivity |
| QVQLVESGGGLVQAGGSLRLSCAASGLTFGYNAMGWYRQAPGKERELVAAISSNGGRTYYADSVKGRFTISRDNAKNTVYLQMNSLKPEDTAVYYCNVVYSRSRPYDYWGQGTQVTVSS | high polyreactivity |
| QVQLVESGGGLVQAGGSLRLSCAASGLTFHPYAMGWYRQAPGKERELVAAISSRGTSTYYADSVKGRFTISRDNAKNTVYLQMNSLKPEDTAVYYCAAEVITIGLYRYGYWGQGTQVTVSS | high polyreactivity |
| QVQLVESGGGLVQAGGSLRLSCAASGLTFHRYAMGWYRQAPGKERELVAAINYSGGRTYYADSVKGRFTISRDNAKNTVYLQMNSLKPEDTAVYYCAAPRASGYYWGQGTQVTVSS | high polyreactivity |
| QVQLVESGGGLVQAGGSLRLSCAASGLTFIDYAMGWYRQAPGKERELVAAITKSGGGTYYADSVKGRFTISRDNAKNTVYLQMNSLKPEDTAVYYCAAVYRTRLYYYWGQGTQVTVSS | high polyreactivity |
| QVQLVESGGGLVQAGGSLRLSCAASGLTFIEYAMGWYRQAPGKERELVAAISSGGRTYYADSVKGRFTISRDNAKNTVYLQMNSLKPEDTAVYYCNARGYRRWYNYWGQGTQVTVSS | high polyreactivity |
| QVQLVESGGGLVQAGGSLRLSCAASGLTFILNAMGWYRQAPGKEREFVAAISRSGVRTYYADSVKGRFTISRDNAKNTVYLQMNSLKPEDTAVYYCARVAPASGVRWYYYWGQGTQVTVSS | high polyreactivity |
| QVQLVESGGGLVQAGGSLRLSCAASGLTFIYYAMGWYRQAPGKERELVAGITRRGGSTYYADSVKGRFTISRDNAKNNVYLQMNSLKPEDTAVYYCAKSPVYRFDSWGQGTQVTVSS | high polyreactivity |
| QVQLVESGGGLVQAGGSLRLSCAASGLTFIYYAMGWYRQAPGKEWELVAAISVSGGSTYYADSVKGRFTISRDNAKNTVYLQMNSLKPEDTAVYYCAADWFVHKPRYHSTFDFWGQGTQVTVSS | low polyreactivity |
| QVQLVESGGGLVQAGGSLRLSCAASGLTFKFYDMGWYRQAPVKEREFVAGITSSGGTTYYADSVKGRFTISRDNAKNTVYLQMNSLKPEVTAVYYCAAADIDDGPFDSWGQGTQVNVSS | low polyreactivity |
| QVQLVESGGGLVQAGGSLRLSCAASGLTFKTYAMGWYRQAPGKERELVAAISRSGGSTSYADSVKGRFTISRDNAKNTVYLQMNSLKPEDTAVYYCAAKTYEPRKYEYWGQGTQVTVSS | high polyreactivity |
| QVQLVESGGGLVQAGGSLRLSCAASGLTFKVNPMGGYRQAPGKERELVPAISSGDRTYYADSVKGRFTISRDNAKNTVDLQMNSLKPEDTAVYYCNARGHNRYGTLLGFGRVPGYDYWGQGTQVTVSS | low polyreactivity |
| QVQLVESGGGLVQAGGSLRLSCAASGLTFKYYAMGWYRQAPGKERELVAAINRSGSSTYYADSVKGRFTISRDNAKNTVYLQMNSLKPEDTAVYYCAKDSFTSTRQYDYWGQGTQVTVSS | low polyreactivity |

| Sequence | polyreactivity (PSR sort gate) |
| --- | --- |
| QVQLVESGGGLVQAGGSLRLSCAASGLTFMYYAMGWYRQAPGKERELVAAISKGGGSTYYADSVKGRFTISRDNAKNTVYLQMNSLKPEDTAVYYCNADKVTRVTYWDDSWGLGTQVTVSS | high polyreactivity |
| QVQLVESGGGLVQAGGSLRLSCAASGLTFNAYPMGCYRQAPGKEWELVAAITSRGSSTYYADSVKGRFTISRDNAKNTVYLQMNSLKPEDTAVYYCAARQRGYYYSRRYDYWGQGTQVTVSS | high polyreactivity |
| QVQLVESGGGLVQAGGSLRLSCAASGLTFNFYAKGWYRQAPGKEREFVAAISRSGGSTHYADSVKGRFTISRDYAKYTVYLQMYSLKPEDTAVYYCAADGGRKNYDYWGQGTQVTVSS | high polyreactivity |
| QVQLVESGGGLVQAGGSLRLSCAASGLTFNPNAMGWYRQAPGKERDLVADITYRGGSTYYADSEKGRFTISRDNAKNTDYLQMYSLKPEDTAVYYCAAQYIGWHLYWYDYWGQGTQVTVSS | low polyreactivity |
| QVQLVESGGGLVQAGGSLRLSCAASGLTFNVYAMGWYRQAPGKERELVASITKRGGSTYYADSVKGRFTISRDNAKNTVYLQMNSLKPEDTAVYYCAADGLTGSIYRATGYYWGQGTQVTVSS | high polyreactivity |
| QVQLVESGGGLVQAGGSLRLSCAASGLTFPDNAMGWYRQAPGKERELVAAITIDGSTYYADSVKGRFTISRDNAKNTVYLQMNSLKPEDTSVYYCNALVGVPYAMYYWGQGTQVTVSS | low polyreactivity |
| QVQLVESGGGLVQAGGSLRLSCAASGLTFPHYTMGWYRQAPGKEREFVARITGSGGRTYYADSVKGRFTISRDNAKNTVDLQRNSLKPEVTGVYYCARDRGYQSGYDYWGQGTQVSVSS | high polyreactivity |
| QVQLVESGGGLVQAGGSLRLSCAASGLTFPPNAMGWYRQAPGKEREFVAVISSGGGSTYYADSVMGRFTISRDHAKNTVYLQMNSLKPEDTAVYNCATEYQDGDTEYYYWGQGTQVTVSS | low polyreactivity |
| QVQLVESGGGLVQAGGSLRLSCAASGLTFPPYAMGWYRQAPGKERELVATISFSTGNTYYADSVKGRFTISRDNAKNTVYLQLNSLKPEDTADYYCNKVFVLPYKFVAWFDSWGQGTQVTVSS | low polyreactivity |
| QVQLVESGGGLVQAGGSLRLSCAASGLTFPSNAMGWYRQAPGKERELVAAISKRGGRTFYADSVKGRFTISRDNAKNTVYLQMNSLKPEDTAVYYCATPYAYPGTVQYAGYNYWGQGTQVTVSS | high polyreactivity |
| QVQLVESGGGLVQAGGSLRLSCAASGLTFPYYAMGWYRQAPGKERELVAAISSSGGSTYYADSVKGRFTISRDNAKNTVYLQMNSLKPEDTAVYYCAAQRYINYDYWGQGTQVTVSS | high polyreactivity |
| QVQLVESGGGLVQAGGSLRLSCAASGLTFPYYVMGWYIQAPGKERELVAAIDDGGGSTYYADSVKGRFTISRDNAKNTVYLQMNSLKPEDTAVYYCAAQVDYLAHYGYWGQGTQVTVSS | low polyreactivity |
| QVQLVESGGGLVQAGGSLRLSCAASGLTFQLYTMGWYRQAPGKERELVAAISRSGTRTYYADSVKGRFTISRDNAKNTVYLQMNSLKPEDTAVYYCAARTDGYRNNYWGQGTQVTVSS | high polyreactivity |
| QVQLVESGGGLVQAGGSLRLSCAASGLTFQVNDMGWYRQAPGKERELVAGITFSGGSTYYPDSVKWRITISRDNAKTTVYLQMNSLKPEDTAVYYCADDTIIGYLYHNVVPTFDYWGQGTQVTVSS | low polyreactivity |
| QVQLVESGGGLVQAGGSLRLSCAASGLTFQWNAMGWYRQATGKERELVAVITDIGDSTYYADSVKGRFTISRDNAKNTVYLQMNSLKPEDTAVYYCAADFGTISIDVYSWMDYWGQGTQVTVSS | low polyreactivity |
| QVQLVESGGGLVQAGGSLRLSCAASGLTFQYNTMGWYRQAPGKERELVARINWGGDSTYYADSVKGRFTISRDNAKNTVYLQMNSLTPEDTAVYYCAAPGYSGRYGYYTYYLYDYWGQGTQVTVSS | low polyreactivity |
